Reference: the supplement of paper PMC10567573

B1: GAGE1 (parent)
chain: RPRRYVQPPEMIGPMRPEQFSDEV

Variants of: B1
Assay: protein stability index of a GFP-peptide fusion (GPS, HEK-293T) (PSI 1-6); higher = more stable
Conditions: c terminus: a fixed tail appended
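Further: lentivirally expressed fusions sorted by FACS into six bins by GFP to DsRed ratio, PSI derived from sequencing read proportions per bin multiplied by bin number.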

Row | Variant | protein stability index
1 | RPRRYVQPPEMIGPMYPEQFSDEV [R16Y] | 4.02
2 | RPRRYVQPPEMIGPMHPEQFSDEV [R16H] | 4.29
3 | RPRRYVQPPEMIGPMAPEQFSDEV [R16A] | 4.31
4 | RPRRYVQPPEMIGPMKPEQFSDEV [R16K] | 3.94
5 | RPRRYVQPPEMIGPMCPEQFSDEV [R16C] | 3.84
6 | RPRRYVQPPEMIGPMQPEQFSDEV [R16Q] | 4.26
7 | RPRRYVQPPEMIGPMLPEQFSDEV [R16L] | 3.5
8 | RPRRYVQPPEMIGPMSPEQFSDEV [R16S] | 3.87
9 | RPRRYVQPPEMIGPMTPEQFSDEV [R16T] | 3.8
10 | RPRRYVQPPEMIGPMDPEQFSDEV [R16D] | 3.84
11 | RPRRYVQPPEMIGPMNPEQFSDEV [R16N] | 4.31
12 | RPRRYVQPPEMIGPMGPEQFSDEV [R16G] | 4.17
13 | RPRRYVQPPEMIGPMIPEQFSDEV [R16I] | 4.44
14 | RPRRYVQPPEMIGPMMPEQFSDEV [R16M] | 3.88
15 | RPRRYVQPPEMIGPMVPEQFSDEV [R16V] | 4.16
16 | RPRRYVQPPEMIGPMFPEQFSDEV [R16F] | 3.8
17 | RPRRYVQPPEMIGPMEPEQFSDEV [R16E] | 4.3
18 | RPRRYVQPPEMIGPMPPEQFSDEV [R16P] | 4.35
19 | RPRRYVQPPEMIGPMWPEQFSDEV [R16W] | 3.28
20 | RPRRYVQPPEMIVPMRPEQFSDEV [G13V] | 4.05
21 | RPRRYVQPPEMIRPMRPEQFSDEV [G13R] | 4.19
22 | RPRRYVQPPEMIMPMRPEQFSDEV [G13M] | 4.14
23 | RPRRYVQPPEMINPMRPEQFSDEV [G13N] | 4.33
24 | RPRRYVQPPEMIQPMRPEQFSDEV [G13Q] | 4.54

Row | Variant | protein stability index
25 | RPRRYVQPPEMIKPMRPEQFSDEV [G13K] | 3.72
26 | RPRRYVQPPEMITPMRPEQFSDEV [G13T] | 4.33
27 | RPRRYVQPPEMIAPMRPEQFSDEV [G13A] | 4.21
28 | RPRRYVQPPEMIHPMRPEQFSDEV [G13H] | 4.07
29 | RPRRYVQPPEMISPMRPEQFSDEV [G13S] | 4.09
30 | RPRRYVQPPEMIEPMRPEQFSDEV [G13E] | 3.95
31 | RPRRYVQPPEMIPPMRPEQFSDEV [G13P] | 4.68
32 | RPRRYVQPPEMICPMRPEQFSDEV [G13C] | 3.96
33 | RPRRYVQPPEMIIPMRPEQFSDEV [G13I] | 3.25
34 | RPRRYVQPPEMIFPMRPEQFSDEV [G13F] | 3.8
35 | RPRRYVQPPEMILPMRPEQFSDEV [G13L] | 3.71
36 | RPRRYVQPPEMIWPMRPEQFSDEV [G13W] | 3.56
37 | RPRRYVQPPEMIYPMRPEQFSDEV [G13Y] | 3.85
38 | RPRRYVQPPEMIDPMRPEQFSDEV [G13D] | 4.63
39 | RPRRYVQPPEMIGPMRPEQASDEV [F20A] | 4.98
40 | RPRRYVQPPEMIGPMRPEQGSDEV [F20G] | 4.85
41 | RPRRYVQPPEMIGPMRPEQDSDEV [F20D] | 4.91
42 | RPRRYVQPPEMIGPMRPEQLSDEV [F20L] | 4.5
43 | RPRRYVQPPEMIGPMRPEQHSDEV [F20H] | 4.04
44 | RPRRYVQPPEMIGPMRPEQKSDEV [F20K] | 4.92
45 | RPRRYVQPPEMIGPMRPEQESDEV [F20E] | 4.97
46 | RPRRYVQPPEMIGPMRPEQCSDEV [F20C] | 4.64
47 | RPRRYVQPPEMIGPMRPEQISDEV [F20I] | 4.31
48 | RPRRYVQPPEMQGPMRPEQFSDEV [I12Q] | 4.62

Row | Variant | protein stability index
49 | RPRRYVQPPEMMGPMRPEQFSDEV [I12M] | 4.39
50 | RPRRYVQPPEMDGPMRPEQFSDEV [I12D] | 4.72
51 | RPRRYVQPPEMFGPMRPEQFSDEV [I12F] | 3.99
52 | RPRRYVQPPEMCGPMRPEQFSDEV [I12C] | 4.33
53 | RPRRYVQPPEMGGPMRPEQFSDEV [I12G] | 4.69
54 | RPRRYVQPPEMKGPMRPEQFSDEV [I12K] | 4.62
55 | RPRRYVQPPEMTGPMRPEQFSDEV [I12T] | 4.53
56 | RPRRYVQPPEMRGPMRPEQFSDEV [I12R] | 4.35
57 | RPRRYVQPPEMEGPMRPEQFSDEV [I12E] | 4.57
58 | RPRRYVQPPEMLGPMRPEQFSDEV [I12L] | 4.12
59 | RPRRYVQPPEMWGPMRPEQFSDEV [I12W] | 3.84
60 | RPRRYVQPPEMAGPMRPEQFSDEV [I12A] | 4.42
61 | RPRRYVQPPEMPGPMRPEQFSDEV [I12P] | 4.31
62 | RPRRYVQPPEMYGPMRPEQFSDEV [I12Y] | 3.91
63 | RPRRYVQPPEMVGPMRPEQFSDEV [I12V] | 4.77
64 | RPRRYVQPPEMSGPMRPEQFSDEV [I12S] | 4.36
65 | RPRRYVQPPEMHGPMRPEQFSDEV [I12H] | 4.3
66 | RPRRYVQPPEMNGPMRPEQFSDEV [I12N] | 4.71
67 | RPRRYVQPPSMIGPMRPEQFSDEV [E10S] | 4.08
68 | RPRRYVQPPRMIGPMRPEQFSDEV [E10R] | 4.39
69 | RPRRYVQPPVMIGPMRPEQFSDEV [E10V] | 3.99
70 | RPRRYVQPPPMIGPMRPEQFSDEV [E10P] | 4.25
71 | RPRRYVQPPTMIGPMRPEQFSDEV [E10T] | 4.33
72 | RPRRYVQPPWMIGPMRPEQFSDEV [E10W] | 3.56

Row | Variant | protein stability index
73 | RPRRYVQPPYMIGPMRPEQFSDEV [E10Y] | 3.18
74 | RPRRYVQPPQMIGPMRPEQFSDEV [E10Q] | 3.69
75 | RPRRYVQPPEMIGPMRDEQFSDEV [P17D] | 4.43
76 | RPRRYVQPPEMIGPMRCEQFSDEV [P17C] | 3.79
77 | RPRRYVQPPEMIGPMRREQFSDEV [P17R] | 3.96
78 | RPRRYVQPPEMIGPMRIEQFSDEV [P17I] | 3.72
79 | RPRRYVQPPEMIGPMRMEQFSDEV [P17M] | 3.88
80 | RPRRYVQPPEMIGPMRHEQFSDEV [P17H] | 3.92
81 | RPRRYVQPPEMIGPMRSEQFSDEV [P17S] | 4.39
82 | RPRRYVQPPEMIGPMRVEQFSDEV [P17V] | 4.43
83 | RPRRYVQPPEMIGPMRWEQFSDEV [P17W] | 3.66
84 | RPRRYVQPPEMIGPMRFEQFSDEV [P17F] | 3.58
85 | RPRRYVQPPEMIGPMRTEQFSDEV [P17T] | 3.85
86 | RPRRYVQPPEMIGPMRYEQFSDEV [P17Y] | 3.36
87 | RPRRYVQPPEMIGPMRGEQFSDEV [P17G] | 4.55
88 | RPRRYVQPPEMIGPMREEQFSDEV [P17E] | 4.33
89 | RPRRYVQPPEMIGPMRNEQFSDEV [P17N] | 4.09
90 | RPRRYVQPPEMIGPMRAEQFSDEV [P17A] | 3.8
91 | RPRRYVQPPEMIGPMRLEQFSDEV [P17L] | 3.97
92 | RPRRYVQPPEMIGPMRKEQFSDEV [P17K] | 4.14
93 | RPRRYVQPPEMIGPMRQEQFSDEV [P17Q] | 4.15
94 | RPRRYVQPPEMIGPMRPEHFSDEV [Q19H] | 3.62
